Assay [1] concerns the target T1, Fib1, N-terminal 30 kDa fragment of fibronectin (Homo sapiens (Human), UniProt P02751 32-290).
T1 construct: also called Fib1 construct; 30 kDa N-terminal fragment of fibronectin containing the N-terminal FnI1-5 modules
The assay is described as follows: fluorescence polarization, Cy5-labelled peptide titrated with Fib1.

The target of assay [2] is T1, Fib1, N-terminal 30 kDa fragment of …. The assay is described as follows: fluorescence polarization/anisotropy, Cy5-labelled peptide (48 nM) titrated with Fib1 in PBS pH 7.4. In general terms: Fluorescence polarisation rises when a labelled molecule tumbles more slowly, as on binding a larger partner.

By Kd is commonly meant a measure of binding affinity in units of concentration. Low values mean higher affinity, high ones lower affinity.

Groups on a side chain read outwards from the residue. No end group written: not given here. Mal‑Cy5 = Cy5-maleimide thiol adduct on the Cys side chain

T1 sequence (P02751 32-290 limits assumed): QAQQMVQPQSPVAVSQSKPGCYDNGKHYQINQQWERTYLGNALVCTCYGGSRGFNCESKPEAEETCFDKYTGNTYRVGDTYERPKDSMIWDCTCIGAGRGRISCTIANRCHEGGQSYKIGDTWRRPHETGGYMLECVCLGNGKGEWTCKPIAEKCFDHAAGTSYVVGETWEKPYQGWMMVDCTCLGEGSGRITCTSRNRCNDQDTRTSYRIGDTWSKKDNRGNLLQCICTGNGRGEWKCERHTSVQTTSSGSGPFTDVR

On to C(Mal‑Cy5)GGGQVTTGSNLVEFTEESLGIVTGAVSDHTTVEDT (also called Cy5-labelled FnBPA5.1) [Cy5-FnBPA5.1], for which the binding result in assay [1] is on record as “binds”.

B1: Cy5-FnBPA5 (peptide)
peptide: C([maleimide-Cy5])GGGQVTTESNLVEFDEESTKGIVTGAVSDHTTVEDTK
modifications: not fully specified
notes: A payload-GGG- format by amide bond is also mentioned; also called Cy5-labelled FnBPA5; FnBPA5 peptide
For B1, binding in assay [2] was characterised by a dissociation constant (Kd) of 0.102 µM.
